Experimental data from publication PMC4369733, “Design of a PDZbody, a bivalent binder of the E6 protein from human papillomavirus” (Scientific Reports, 2015).

Legend:
[1] = target: Lipo-E6_(18)-C: C-terminal domain of HPV18 E6 (residues 82-158) linked via the N-terminus to His-tagged lipoyl domain (HPV18) (UniProt P06463); assay: stopped-flow fluorescence kinetics; association: PDZ variant (6-20 µM) mixed with Lipo-E6_(18)-C (2 µM), Trp342 emission; 10°C, 50 mM potassium phosphate pH 7.5, 240 µM β-mercaptoethanol; kon from kobs versus PDZ concentration; Kd = koff/kon
[2] = target: Lipo-E6_(18)-C: C-terminal domain of HPV18 E6 (residues 82-158) linked via the N-terminus to His-tagged lipoyl domain (HPV18) (UniProt P06463); assay: stopped-flow fluorescence kinetics; displacement: pre-formed complex of PDZ variant (0.75 µM) and Lipo-E6_(18)-C (0.75 µM) mixed with dansylated peptide (20, 150 and 300 µM); 10°C, 50 mM potassium phosphate pH 7.5, 240 µM β-mercaptoethanol; koff = kobs at high peptide
[3] = target: PDZbody15 (E6AP helix, Gly-Ser linker of 10 residues, PDZϕ9) (UniProt Q12959); assay: ITC; full-length HPV16 E6 titrated into the PDZ variant or PDZbody; ITC200, 25°C, 20 mM sodium phosphate pH 6.8, 200 mM NaCl, 1 mM TCEP; single-site model
[4] = target: PDZbody20 (E6AP helix, Gly-Ser linker of 15 residues, PDZϕ9) (UniProt Q12959); assay: as above
[5] = target: PDZbody8 (E6AP helix, Gly-Ser linker of 3 residues, PDZϕ9) (UniProt Q12959); assay: as above
[6] = target: PDZbody25 (E6AP helix, Gly-Ser linker of 20 residues, PDZϕ9) (UniProt Q12959); assay: as above
[7] = target: PDZϕ9 (SAP97 PDZ2 pseudo wild type with L391F, K392M) (human) (UniProt Q12959); assay: as above
[8] = target: pseudo wild type SAP97 PDZ2 (residues 311-407; I342W, C378A) (human) (UniProt Q12959); assay: as above
[9] = target: T1, pseudo wild type SAP97 PDZ2 (residues 311-407; I342W, C378A) (human, UniProt Q12959 311-407, I342W | C378A); assay: stopped-flow fluorescence kinetics; association: PDZ variant (6-20 µM) mixed with Lipo-E6_(18)-C (2 µM), Trp342 emission; 10°C, 50 mM potassium phosphate pH 7.5, 240 µM β-mercaptoethanol; kon from kobs versus PDZ concentration; Kd = koff/kon; details: both partners purified
T1 construct: SAP97 (also called human Dlg), second PDZ domain (PDZ2), residues 311-407; Residues of the thrombin site probably stay at the N-terminus after cleavage (surmised); also called pWT; source: E. coli BL21(DE3) pLysS, purified (nickel-Sepharose, thrombin digestion, nickel reload, Source 30Q); not shown: His tag, N-terminal, cleaved; lipoyl protein domain (Bacillus stearothermophilus), N-terminal, …
T1 sequence (looked up): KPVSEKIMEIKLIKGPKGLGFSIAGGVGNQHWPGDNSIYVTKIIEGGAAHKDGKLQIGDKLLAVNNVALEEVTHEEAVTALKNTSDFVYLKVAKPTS

[10] = target: T1, pseudo wild type SAP97 PDZ2 (residues …); assay: stopped-flow fluorescence kinetics; displacement: pre-formed complex of PDZ variant (0.75 µM) and Lipo-E6_(18)-C (0.75 µM) mixed with dansylated peptide (20, 150 and 300 µM); 10°C, 50 mM potassium phosphate pH 7.5, 240 µM β-mercaptoethanol; koff = kobs at high peptide; details: both partners purified

## PDZϕ9 (SAP97 PDZ2 pseudo wild type with L391F, K392M) (from UniProt Q12959 311-407) (designed binder)
[1]
  Kd: 0.093 µM
  kon: 5.9e+06 M⁻¹ s⁻¹
[2]
  koff: 0.55 s⁻¹

## PDZϕ8 (SAP97 PDZ2 pseudo wild type with E385T) (from UniProt Q12959 311-407) (designed binder)
[1]
  Kd: 0.66 µM
  kon: 5.8e+06 M⁻¹ s⁻¹
[2]
  koff: 3.8 s⁻¹

## full-length HPV16 E6 (from UniProt P03126 1-158) (natural protein)
[3]
  Kd: 0.16 µM
  dH: -69 kJ/mol
  stoichiometry N: 0.93
[4]
  Kd: 0.065 µM
  dH: -71.1 kJ/mol
  stoichiometry N: 0.94
[5]
  Kd: 0.2 µM
  dH: -79.9 kJ/mol
  stoichiometry N: 0.76
[6]
  Kd: 0.079 µM
  dH: -82.8 kJ/mol
  stoichiometry N: 0.92
[7]
  Kd: 0.91 µM
  dH: -41.4 kJ/mol
  stoichiometry N: 0.75
[8]
  Kd: 6.3 µM
  dH: -19.2 kJ/mol
  stoichiometry N: 0.75

## PDZϕ7 (SAP97 PDZ2 pseudo wild type with E385K, K392R) (from UniProt Q12959 311-407) (designed binder)
[1]
  Kd: 0.61 µM
  kon: 8.9e+06 M⁻¹ s⁻¹
[2]
  koff: 5.5 s⁻¹

## PDZϕ4 (SAP97 PDZ2 pseudo wild type with E385H, K392R) (from UniProt Q12959 311-407) (designed binder)
[1]
  Kd: 0.6 µM
  kon: 8.5e+06 M⁻¹ s⁻¹
[2]
  koff: 5.1 s⁻¹

## PDZϕ6 (SAP97 PDZ2 pseudo wild type with E385K, K392Q) (from UniProt Q12959 311-407) (designed binder)
[1]
  Kd: 2.5 µM
  kon: 4e+06 M⁻¹ s⁻¹
[2]
  koff: 10.2 s⁻¹

## PDZϕ1 (SAP97 PDZ2 pseudo wild type with E385R) (from UniProt Q12959 311-407) (designed binder)
[1]
  Kd: 0.92 µM
  kon: 8.2e+06 M⁻¹ s⁻¹
[2]
  koff: 7.5 s⁻¹

## PDZϕ2 (SAP97 PDZ2 pseudo wild type with E385H, L391F, K392Q) (from UniProt Q12959 311-407) (designed binder)
[1]
  Kd: 0.26 µM
  kon: 5.9e+06 M⁻¹ s⁻¹
[2]
  koff: 1.5 s⁻¹

## PDZϕ3 (SAP97 PDZ2 pseudo wild type with L391F, K392A) (from UniProt Q12959 311-407) (designed binder)
[1]
  Kd: 0.16 µM
  kon: 4.6e+06 M⁻¹ s⁻¹
[2]
  koff: 0.75 s⁻¹

## PDZϕ5 (SAP97 PDZ2 pseudo wild type with E385H, K392T) (from UniProt Q12959 311-407) (designed binder)
[1]
  Kd: 0.78 µM
  kon: 4.9e+06 M⁻¹ s⁻¹
[2]
  koff: 3.8 s⁻¹

B1: Lipo-E6_(18)-C: C-terminal domain of HPV18 E6 (residues 82-158) linked via the N-terminus to His-tagged lipoyl domain (domain or fragment)
chain: SDSVYGDTLEKLTNTGLYNLLIRCLRCQKPLNPAEKLRHLNEKRRFHNIAGHYRGQCHSCCNRARQERLQRRRETQV
notes: HPV18 E6 C-terminal domain, residues 82-158, UniProtKB P06463; A thrombin cleavage site (LVPRGS) stands between the lipoyl domain and the E6 domain and was not cut; also called HPV18 E6 C-terminal domain; source: E. coli BL21(DE3) pLysS, purified (nickel-Sepharose, Source 30Q; thrombin digestion omitted); not shown: His tag, N-terminal, kept; lipoyl protein domain (Bacillus stearothermophilus), …
[9]
  Kd: 0.54 µM
  kon: 6.2e+06 M⁻¹ s⁻¹
[10]
  koff: 3.3 s⁻¹
